From patent US20150374794A1 (Novo Nordisk, published 2015)
Numbered stars: 1 amine (or outer) side, 2 acyl side, 3 side chain; on linkers, the order of the positions; unused ones are H or OH. Square brackets hold non-standard residues; d marks the D form. Side chains are listed from the residue outwards. Ends that are not written are not given here. * marks the point of attachment. C18 diacid = O=C(O)CCCCCCCCCCCCCCCCC(=O)*; γGlu = O=C(O)[C@H](CCC(=O)[*:2])N[*:1]; AEEA = NCCOCCOCC(=O)O; Aib = CC(C)(N)C(=O)O

B1: N^α-([Aib2,Leu10,Arg20,Leu27,Ser28]-Glucagonyl)-N{Epsilon}[(4S)-4-carboxy-4-[[(4S)-4-carboxy-4-[[2-[2-[2-[[2-[2-[2-[[(4S)-4-carboxy-4-(17-carboxyheptadecanoylam … (peptide)
peptide: H[Aib]QGTFTSDLSKYLDSRRARDFVQWLLSTK([γGlu-γGlu-AEEA-AEEA-γGlu-C18 diacid])-NH2
modifications: N-terminus assumed
SMILES: CC(C)C[C@H](NC(=O)[C@H](Cc1ccc(O)cc1)NC(=O)[C@H](CCCCN)NC(=O)[C@H](CO)NC(=O)[C@H](CC(C)C)NC(=O)[C@H](CC(=O)O)NC(=O)[C@H](CO)NC(=O)[C@@H](NC(=O)[C@H](Cc1ccccc1)NC(=O)[C@@H](NC(=O)CNC(=O)[C@H](CCC(N)=O)NC(=O)C(C)(C)NC(=O)[C@@H](N)Cc1c[nH]cn1)[C@@H](C)O)[C@@H](C)O)C(=O)N[C@@H](CC(=O)O)C(=O)N[C@@H](CO)C(=O)N[C@@H](CCCNC(=N)N)C(=O)N[C@@H](CCCNC(=N)N)C(=O)N[C@@H](C)C(=O)N[C@@H](CCCNC(=N)N)C(=O)N[C@@H](CC(=O)O)C(=O)N[C@@H](Cc1ccccc1)C(=O)N[C@H](C(=O)N[C@@H](CCC(N)=O)C(=O)N[C@@H](Cc1c[nH]c2ccccc12)C(=O)N[C@@H](CC(C)C)C(=O)N[C@@H](CC(C)C)C(=O)N[C@@H](CO)C(=O)N[C@H](C(=O)N[C@@H](CCCCNC(=O)CC[C@H](NC(=O)CC[C@H](NC(=O)COCCOCCNC(=O)COCCOCCNC(=O)CC[C@H](NC(=O)CCCCCCCCCCCCCCCCC(=O)O)C(=O)O)C(=O)O)C(=O)O)C(N)=O)[C@@H](C)O)C(C)C
B2: N^ε29-[(4S)-4-carboxy-4-[[(4S)-4-carboxy-4-[[2-[2-[2-[[2-[2-[2-[[(4S)-4-carboxy-4-(17-carboxyheptadecanoylamino)butanoyl]amino]ethoxy]ethoxy]acetyl]amino]ethoxy … (peptide)
peptide: H[Aib]QGTFTSDLSKYLDSRRARDFVQWLLSK([γGlu-γGlu-AEEA-AEEA-γGlu-C18 diacid])-NH2
modifications: N-terminus assumed
SMILES: CC(C)C[C@H](NC(=O)[C@H](CC(C)C)NC(=O)[C@H](Cc1c[nH]c2ccccc12)NC(=O)[C@H](CCC(N)=O)NC(=O)[C@@H](NC(=O)[C@H](Cc1ccccc1)NC(=O)[C@H](CC(=O)O)NC(=O)[C@H](CCCNC(=N)N)NC(=O)[C@H](C)NC(=O)[C@H](CCCNC(=N)N)NC(=O)[C@H](CCCNC(=N)N)NC(=O)[C@H](CO)NC(=O)[C@H](CC(=O)O)NC(=O)[C@H](CC(C)C)NC(=O)[C@H](Cc1ccc(O)cc1)NC(=O)[C@H](CCCCN)NC(=O)[C@H](CO)NC(=O)[C@H](CC(C)C)NC(=O)[C@H](CC(=O)O)NC(=O)[C@H](CO)NC(=O)[C@@H](NC(=O)[C@H](Cc1ccccc1)NC(=O)[C@@H](NC(=O)CNC(=O)[C@H](CCC(N)=O)NC(=O)C(C)(C)NC(=O)[C@@H](N)Cc1c[nH]cn1)[C@@H](C)O)[C@@H](C)O)C(C)C)C(=O)N[C@@H](CO)C(=O)N[C@@H](CCCCNC(=O)CC[C@H](NC(=O)CC[C@H](NC(=O)COCCOCCNC(=O)COCCOCCNC(=O)CC[C@H](NC(=O)CCCCCCCCCCCCCCCCC(=O)O)C(=O)O)C(=O)O)C(=O)O)C(N)=O
B3: N^ε28-[(4S)-4-carboxy-4-[[(4S)-4-carboxy-4-[[2-[2-[2-[[2-[2-[2-[[(4S)-4-carboxy-4-(17-carboxyheptadecanoylamino)butanoyl]amino]ethoxy]ethoxy]acetyl]amino]ethoxy … (peptide)
peptide: H[Aib]HGTFTSDLSKYLESKRAREFVQWLLK([γGlu-γGlu-AEEA-AEEA-γGlu-C18 diacid])T-NH2
modifications: N-terminus assumed
SMILES: CC(C)C[C@H](NC(=O)[C@H](Cc1ccc(O)cc1)NC(=O)[C@H](CCCCN)NC(=O)[C@H](CO)NC(=O)[C@H](CC(C)C)NC(=O)[C@H](CC(=O)O)NC(=O)[C@H](CO)NC(=O)[C@@H](NC(=O)[C@H](Cc1ccccc1)NC(=O)[C@@H](NC(=O)CNC(=O)[C@H](Cc1c[nH]cn1)NC(=O)C(C)(C)NC(=O)[C@@H](N)Cc1c[nH]cn1)[C@@H](C)O)[C@@H](C)O)C(=O)N[C@@H](CCC(=O)O)C(=O)N[C@@H](CO)C(=O)N[C@@H](CCCCN)C(=O)N[C@@H](CCCNC(=N)N)C(=O)N[C@@H](C)C(=O)N[C@@H](CCCNC(=N)N)C(=O)N[C@@H](CCC(=O)O)C(=O)N[C@@H](Cc1ccccc1)C(=O)N[C@H](C(=O)N[C@@H](CCC(N)=O)C(=O)N[C@@H](Cc1c[nH]c2ccccc12)C(=O)N[C@@H](CC(C)C)C(=O)N[C@@H](CC(C)C)C(=O)N[C@@H](CCCCNC(=O)CC[C@H](NC(=O)CC[C@H](NC(=O)COCCOCCNC(=O)COCCOCCNC(=O)CC[C@H](NC(=O)CCCCCCCCCCCCCCCCC(=O)O)C(=O)O)C(=O)O)C(=O)O)C(=O)N[C@H](C(N)=O)[C@@H](C)O)C(C)C
B4: N^ε28-[(4S)-4-carboxy-4-[[(4S)-4-carboxy-4-[[(4S)-4-carboxy-4-(17-carboxyheptadecanoylamino)butanoyl]amino]butanoyl]amino]butanoyl]-[Aib2,His3,Leu10,Glu15,Lys17 … (peptide)
peptide: H[Aib]HGTFTSDLSKYLESKRAREFVQWLLK([γGlu-γGlu-γGlu-C18 diacid])T-NH2
modifications: N-terminus assumed
SMILES: CC(C)C[C@H](NC(=O)[C@H](Cc1ccc(O)cc1)NC(=O)[C@H](CCCCN)NC(=O)[C@H](CO)NC(=O)[C@H](CC(C)C)NC(=O)[C@H](CC(=O)O)NC(=O)[C@H](CO)NC(=O)[C@@H](NC(=O)[C@H](Cc1ccccc1)NC(=O)[C@@H](NC(=O)CNC(=O)[C@H](Cc1c[nH]cn1)NC(=O)C(C)(C)NC(=O)[C@@H](N)Cc1c[nH]cn1)[C@@H](C)O)[C@@H](C)O)C(=O)N[C@@H](CCC(=O)O)C(=O)N[C@@H](CO)C(=O)N[C@@H](CCCCN)C(=O)N[C@@H](CCCNC(=N)N)C(=O)N[C@@H](C)C(=O)N[C@@H](CCCNC(=N)N)C(=O)N[C@@H](CCC(=O)O)C(=O)N[C@@H](Cc1ccccc1)C(=O)N[C@H](C(=O)N[C@@H](CCC(N)=O)C(=O)N[C@@H](Cc1c[nH]c2ccccc12)C(=O)N[C@@H](CC(C)C)C(=O)N[C@@H](CC(C)C)C(=O)N[C@@H](CCCCNC(=O)CC[C@H](NC(=O)CC[C@H](NC(=O)CC[C@H](NC(=O)CCCCCCCCCCCCCCCCC(=O)O)C(=O)O)C(=O)O)C(=O)O)C(=O)N[C@H](C(N)=O)[C@@H](C)O)C(C)C
B5: N^ε16-[(4S)-4-carboxy-4-[[(4S)-4-carboxy-4-[[2-[2-[2-[[2-[2-[2-[[(4S)-4-carboxy-4-(17-carboxyheptadecanoylamino)butanoyl]amino]ethoxy]ethoxy]acetyl]amino]ethoxy … (peptide)
peptide: H[Aib]QGTFTSDLSKYLDK([γGlu-γGlu-AEEA-AEEA-γGlu-C18 diacid])RRARDFVQWLLST-NH2
modifications: N-terminus assumed
SMILES: CC(C)C[C@H](NC(=O)[C@H](Cc1ccc(O)cc1)NC(=O)[C@H](CCCCN)NC(=O)[C@H](CO)NC(=O)[C@H](CC(C)C)NC(=O)[C@H](CC(=O)O)NC(=O)[C@H](CO)NC(=O)[C@@H](NC(=O)[C@H](Cc1ccccc1)NC(=O)[C@@H](NC(=O)CNC(=O)[C@H](CCC(N)=O)NC(=O)C(C)(C)NC(=O)[C@@H](N)Cc1c[nH]cn1)[C@@H](C)O)[C@@H](C)O)C(=O)N[C@@H](CC(=O)O)C(=O)N[C@@H](CCCCNC(=O)CC[C@H](NC(=O)CC[C@H](NC(=O)COCCOCCNC(=O)COCCOCCNC(=O)CC[C@H](NC(=O)CCCCCCCCCCCCCCCCC(=O)O)C(=O)O)C(=O)O)C(=O)O)C(=O)N[C@@H](CCCNC(=N)N)C(=O)N[C@@H](CCCNC(=N)N)C(=O)N[C@@H](C)C(=O)N[C@@H](CCCNC(=N)N)C(=O)N[C@@H](CC(=O)O)C(=O)N[C@@H](Cc1ccccc1)C(=O)N[C@H](C(=O)N[C@@H](CCC(N)=O)C(=O)N[C@@H](Cc1c[nH]c2ccccc12)C(=O)N[C@@H](CC(C)C)C(=O)N[C@@H](CC(C)C)C(=O)N[C@@H](CO)C(=O)N[C@H](C(N)=O)[C@@H](C)O)C(C)C

target: human glucagon receptor (human, UniProt P47871 26-477); test: cell-based or functional assay
Sequence (P47871 26-477): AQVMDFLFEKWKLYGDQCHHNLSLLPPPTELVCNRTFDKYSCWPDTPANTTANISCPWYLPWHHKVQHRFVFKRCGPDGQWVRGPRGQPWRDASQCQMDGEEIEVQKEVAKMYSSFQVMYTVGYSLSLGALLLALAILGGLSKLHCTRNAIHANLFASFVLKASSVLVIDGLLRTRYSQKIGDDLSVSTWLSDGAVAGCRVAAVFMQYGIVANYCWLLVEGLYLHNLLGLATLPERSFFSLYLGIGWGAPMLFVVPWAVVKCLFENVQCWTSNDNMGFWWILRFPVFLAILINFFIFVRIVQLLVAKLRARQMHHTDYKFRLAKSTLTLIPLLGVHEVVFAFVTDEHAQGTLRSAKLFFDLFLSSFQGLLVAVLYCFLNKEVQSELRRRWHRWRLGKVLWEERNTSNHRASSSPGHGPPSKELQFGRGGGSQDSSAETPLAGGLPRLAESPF

Row | Binder | EC50 GlucR, CRE luciferase reporter gene assay in BHK cells [pM]
1 | B1 | 1210
2 | B2 | 109
3 | B3 | 1.1
4 | B4 | 2.9
5 | B5 | 54

target: human GLP-1 receptor (human, UniProt P43220 24-463); test: cell-based or functional assay

Row | Binder | EC50 GLP-1R, CRE luciferase reporter gene assay in BHK cells [pM]
6 | B1 | 20
7 | B2 | 5
8 | B5 | 8
